Results reported in publication PMC10540216, “Activity Guided Azide-methyllysine Photo-trapping for Substrate Profiling of Lysine Demethylases” (Journal of the American Chemical Society, 2023).

B1: FUS_HUMAN (protein, UniProt P35637 1-526, looked up)
RNA-binding protein FUS: MASNDYTQQATQSYGAYPTQPGQGYSQQSSQPYGQQSYSGYSQSTDTSGYGQSSYSSYGQSQNTGYGTQSTPQGYGSTGGYGSSQSSQSSYGQQSSYPGYGQQPAPSSTSGSYGSSSQSSSYGQPQSGSYSQQPSYGGQQQSYGQQQSYNPPQGYGQQNQYNSSSGGGGGGGGGGNYGQDQSSMSSGGGSGGGYGNQDQSGGGGSGGYGQQDRGGRGRGGSGGGGGGGGGGYNRSSGGYEPRGRGGGRGGRGGMGGSDRGGFNKFGGPRDQGSRHDSEQDNSDNNTIFVQGLGENVTIESVADYFKQIGIIKTNKKTGQPMINLYTDRETGKLKGEATVSFDDPPSAKAAIDWFDGKEFSGNPIKVSFATRRADFNRGGGNGRGGRGRGGPMGRGGYGGGGSGGGGRGGFPSGGGGGGGQQRAGDWKCPNPTCENMNFSWRNECNQCKAPKPDGPGGGPGGSHMGGNYGDDRRGGRGGYDRGGYRGRGGDRGGFRGGRGGGDRGGFGPGKMDSRGEHRQDRRERPY
B2: CDC5L_HUMAN (protein, UniProt Q99459 1-802, looked up)
Cell division cycle 5-like …: MPRIMIKGGVWRNTEDEILKAAVMKYGKNQWSRIASLLHRKSAKQCKARWYEWLDPSIKKTEWSREEEEKLLHLAKLMPTQWRTIAPIIGRTAAQCLEHYEFLLDKAAQRDNEEETTDDPRKLKPGEIDPNPETKPARPDPIDMDEDELEMLSEARARLANTQGKKAKRKAREKQLEEARRLAALQKRRELRAAGIEIQKKRKRKRGVDYNAEIPFEKKPALGFYDTSEENYQALDADFRKLRQQDLDGELRSEKEGRDRKKDKQHLKRKKESDLPSAILQTSGVSEFTKKRSKLVLPAPQISDAELQEVVKVGQASEIARQTAEESGITNSASSTLLSEYNVTNNSVALRTPRTPASQDRILQEAQNLMALTNVDTPLKGGLNTPLHESDFSGVTPQRQVVQTPNTVLSTPFRTPSNGAEGLTPRSGTTPKPVINSTPGRTPLRDKLNINPEDGMADYSDPSYVKQMERESREHLRLGLLGLPAPKNDFEIVLPENAEKELEEREIDDTYIEDAADVDARKQAIRDAERVKEMKRMHKAVQKDLPRPSEVNETILRPLNVEPPLTDLQKSEELIKKEMITMLHYDLLHHPYEPSGNKKGKTVGFGTNNSEHITYLEHNPYEKFSKEELKKAQDVLVQEMEVVKQGMSHGELSSEAYNQVWEECYSQVLYLPGQSRYTRANLASKKDRIESLEKRLEINRGHMTTEAKRAAKMEKKMKILLGGYQSRAMGLMKQLNDLWDQIEQAHLELRTFEELKKHEDSAIPRRLECLKEDVQRQQEREKELQHRYADLLLEKETLKSKF
B3: MCM6_HUMAN (protein, UniProt Q14566 1-821, looked up)
DNA replication licensing …: MDLAAAAEPGAGSQHLEVRDEVAEKCQKLFLDFLEEFQSSDGEIKYLQLAEELIRPERNTLVVSFVDLEQFNQQLSTTIQEEFYRVYPYLCRALKTFVKDRKEIPLAKDFYVAFQDLPTRHKIRELTSSRIGLLTRISGQVVRTHPVHPELVSGTFLCLDCQTVIRDVEQQFKYTQPNICRNPVCANRRRFLLDTNKSRFVDFQKVRIQETQAELPRGSIPRSLEVILRAEAVESAQAGDKCDFTGTLIVVPDVSKLSTPGARAETNSRVSGVDGYETEGIRGLRALGVRDLSYRLVFLACCVAPTNPRFGGKELRDEEQTAESIKNQMTVKEWEKVFEMSQDKNLYHNLCTSLFPTIHGNDEVKRGVLLMLFGGVPKTTGEGTSLRGDINVCIVGDPSTAKSQFLKHVEEFSPRAVYTSGKASSAAGLTAAVVRDEESHEFVIEAGALMLADNGVCCIDEFDKMDVRDQVAIHEAMEQQTISITKAGVKATLNARTSILAAANPISGHYDRSKSLKQNINLSAPIMSRFDLFFILVDECNEVTDYAIARRIVDLHSRIEESIDRVYSLDDIRRYLLFARQFKPKISKESEDFIVEQYKHLRQRDGSGVTKSSWRITVRQLESMIRLSEAMARMHCCDEVQPKHVKEAFRLLNKSIIRVETPDVNLDQEEEIQMEVDEGAGGINGHADSPAPVNGINGYNEDINQESAPKASLRLGFSEYCRISNLIVLHLRKVEEEEDESALKRSELVNWYLKEIESEIDSEEELINKKRIIEKVIHRLTHYDHVLIELTQAGLKGSTEGSESYEEDPYLVVNPNYLLED
B4: DDX21_HUMAN (protein, UniProt Q9NR30 1-783, looked up)
Nucleolar RNA helicase 2: MPGKLRSDAGLESDTAMKKGETLRKQTEEKEKKEKPKSDKTEEIAEEEETVFPKAKQVKKKAEPSEVDMNSPKSKKAKKKEEPSQNDISPKTKSLRKKKEPIEKKVVSSKTKKVTKNEEPSEEEIDAPKPKKMKKEKEMNGETREKSPKLKNGFPHPEPDCNPSEAASEESNSEIEQEIPVEQKEGAFSNFPISEETIKLLKGRGVTFLFPIQAKTFHHVYSGKDLIAQARTGTGKTFSFAIPLIEKLHGELQDRKRGRAPQVLVLAPTRELANQVSKDFSDITKKLSVACFYGGTPYGGQFERMRNGIDILVGTPGRIKDHIQNGKLDLTKLKHVVLDEVDQMLDMGFADQVEEILSVAYKKDSEDNPQTLLFSATCPHWVFNVAKKYMKSTYEQVDLIGKKTQKTAITVEHLAIKCHWTQRAAVIGDVIRVYSGHQGRTIIFCETKKEAQELSQNSAIKQDAQSLHGDIPQKQREITLKGFRNGSFGVLVATNVAARGLDIPEVDLVIQSSPPKDVESYIHRSGRTGRAGRTGVCICFYQHKEEYQLVQVEQKAGIKFKRIGVPSATEIIKASSKDAIRLLDSVPPTAISHFKQSAEKLIEEKGAVEALAAALAHISGATSVDQRSLINSNVGFVTMILQCSIEMPNISYAWKELKEQLGEEIDSKVKGMVFLKGKLGVCFDVPTASVTEIQEKWHDSRRWQLSVATEQPELEGPREGYGGFRGQREGSRGFRGQRDGNRRFRGQREGSRGPRGQRSGGGNKSNRSQNKGQKRSFSKAFGQ
B5: NOLC1_HUMAN (protein, UniProt Q14978 1-699, looked up)
Nucleolar and coiled-body …: MADAGIRRVVPSDLYPLVLGFLRDNQLSEVANKFAKATGATQQDANASSLLDIYSFWLKSAKVPERKLQANGPVAKKAKKKASSSDSEDSSEEEEEVQGPPAKKAAVPAKRVGLPPGKAAAKASESSSSEESSDDDDEEDQKKQPVQKGVKPQAKAAKAPPKKAKSSDSDSDSSSEDEPPKNQKPKITPVTVKAQTKAPPKPARAAPKIANGKAASSSSSSSSSSSSDDSEEEKAAATPKKTVPKKQVVAKAPVKAATTPTRKSSSSEDSSSDEEEEQKKPMKNKPGPYSSVPPPSAPPPKKSLGTQPPKKAVEKQQPVESSEDSSDESDSSSEEEKKPPTKAVVSKATTKPPPAKKAAESSSDSSDSDSSEDDEAPSKPAGTTKNSSNKPAVTTKSPAVKPAAAPKQPVGGGQKLLTRKADSSSSEEESSSSEEEKTKKMVATTKPKATAKAALSLPAKQAPQGSRDSSSDSDSSSSEEEEEKTSKSAVKKKPQKVAGGAAPSKPASAKKGKAESSNSSSSDDSSEEEEEKLKGKGSPRPQAPKANGTSALTAQNGKAAKNSEEEEEEKKKAAVVVSKSGSLKKRKQNEAAKEAETPQAKKIKLQTPNTFPKRKKGEKRASSPFRRVREEEIEVDSRVADNSFDAKRGAAGDWGERANQVLKFTKGKSFRHEKTKKKRGSYRGGSISVQVNSIKFDSE
B6: DHX15_HUMAN (protein, UniProt O43143 1-795, looked up)
ATP-dependent RNA helicase …: MSKRHRLDLGEDYPSGKKRAGTDGKDRDRDRDREDRSKDRDRERDRGDREREREKEKEKELRASTNAMLISAGLPPLKASHSAHSTHSAHSTHSTHSAHSTHAGHAGHTSLPQCINPFTNLPHTPRYYDILKKRLQLPVWEYKDRFTDILVRHQSFVLVGETGSGKTTQIPQWCVEYMRSLPGPKRGVACTQPRRVAAMSVAQRVADEMDVMLGQEVGYSIRFEDCSSAKTILKYMTDGMLLREAMNDPLLERYGVIILDEAHERTLATDILMGVLKEVVRQRSDLKVIVMSATLDAGKFQIYFDNCPLLTIPGRTHPVEIFYTPEPERDYLEAAIRTVIQIHMCEEEEGDLLLFLTGQEEIDEACKRIKREVDDLGPEVGDIKIIPLYSTLPPQQQQRIFEPPPPKKQNGAIGRKVVVSTNIAETSLTIDGVVFVIDPGFAKQKVYNPRIRVESLLVTAISKASAQQRAGRAGRTRPGKCFRLYTEKAYKTEMQDNTYPEILRSNLGSVVLQLKKLGIDDLVHFDFMDPPAPETLMRALELLNYLAALNDDGDLTELGSMMAEFPLDPQLAKMVIASCDYNCSNEVLSITAMLSVPQCFVRPTEAKKAADEAKMRFAHIDGDHLTLLNVYHAFKQNHESVQWCYDNFINYRSLMSADNVRQQLSRIMDRFNLPRRSTDFTSRDYYINIRKALVTGYFMQVAHLERTGHYLTVKDNQVVQLHPSTVLDHKPEWVLYNEFVLTTKNYIRTCTDIKPEWLVKIAPQYYDMSNFPQCEAKRQLDRIIAKLQSKEYSQY
B7: MCM5_HUMAN (protein, UniProt P33992 2-734, looked up)
DNA replication licensing …: SGFDDPGIFYSDSFGGDAQADEGQARKSQLQRRFKEFLRQYRVGTDRTGFTFKYRDELKRHYNLGEYWIEVEMEDLASFDEDLADYLYKQPAEHLQLLEEAAKEVADEVTRPRPSGEEVLQDIQVMLKSDASPSSIRSLKSDMMSHLVKIPGIIIAASAVRAKATRISIQCRSCRNTLTNIAMRPGLEGYALPRKCNTDQAGRPKCPLDPYFIMPDKCKCVDFQTLKLQELPDAVPHGEMPRHMQLYCDRYLCDKVVPGNRVTIMGIYSIKKFGLTTSRGRDRVGVGIRSSYIRVLGIQVDTDGSGRSFAGAVSPQEEEEFRRLAALPNVYEVISKSIAPSIFGGTDMKKAIACLLFGGSRKRLPDGLTRRGDINLLMLGDPGTAKSQLLKFVEKCSPIGVYTSGKGSSAAGLTASVMRDPSSRNFIMEGGAMVLADGGVVCIDEFDKMREDDRVAIHEAMEQQTISIAKAGITTTLNSRCSVLAAANSVFGRWDETKGEDNIDFMPTILSRFDMIFIVKDEHNEERDVMLAKHVITLHVSALTQTQAVEGEIDLAKLKKFIAYCRVKCGPRLSAEAAEKLKNRYIIMRSGARQHERDSDRRSSIPITVRQLEAIVRIAEALSKMKLQPFATEADVEEALRLFQVSTLDAALSGTLSGVEGFTSQEDQEMLSRIEKQLKRRFAIGSQVSEHSIIKDFTKQKYPEHAIHKVLQLMLRRGEIQHRMQRKVLYRLK
B8: RPN1_HUMAN (protein, UniProt P04843 24-607, looked up)
Dolichyl-diphosphooligosacchar …: ASSEAPPLINEDVKRTVDLSSHLAKVTAEVVLAHLGGGSTSRATSFLLALEPELEARLAHLGVQVKGEDEEENNLEVRETKIKGKSGRFFTVKLPVALDPGAKISVIVETVYTHVLHPYPTQITQSEKQFVVFEGNHYFYSPYPTKTQTMRVKLASRNVESYTKLGNPTRSEDLLDYGPFRDVPAYSQDTFKVHYENNSPFLTITSMTRVIEVSHWGNIAVEENVDLKHTGAVLKGPFSRYDYQRQPDSGISSIRSFKTILPAAAQDVYYRDEIGNVSTSHLLILDDSVEMEIRPRFPLFGGWKTHYIVGYNLPSYEYLYNLGDQYALKMRFVDHVFDEQVIDSLTVKIILPEGAKNIEIDSPYEISRAPDELHYTYLDTFGRPVIVAYKKNLVEQHIQDIVVHYTFNKVLMLQEPLLVVAAFYILFFTVIIYVRLDFSITKDPAAEARMKVACITEQVLTLVNKRIGLYRHFDETVNRYKQSRDISTLNSGKKSLETEHKALTSEIALLQSRLKTEGSDLCDRVSEMQKLDAQVKELVLKSAVEAERLVAGKLKKDTYIENEKLISGKRQELVTKIDHILDAL

What follows are molecules tested on KDM4A-I71AzF (assay: CASI: photo-crosslinking with HEK293T cell extracts, StrepTactin enrichment and LC-MS/MS proteomics). Details: sheet "Final results but with 0.01".
Assay type: binding, human
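Also: lysates from HEK293T cells pretreated with a KDM4 inhibitor to raise proteome methylation, affinity-purified after ±UV, gel-resolved, trypsin-digested, with exclusive unique peptides per protein averaged per condition.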

Molecule | Fold change (+UV/-UV)
B1 | 0.5
B2 | 0
B3 | 0.75
B4 | 1
B5 | 1
B6 | 1.071
B7 | 0.9167
B8 | 3
